What was measured:
olfr62 [1] = assay: CRE-luciferase reporter gene assay, olfr62; format: cell-based, mouse; conditions: Hana3A cells
Protocol: Four ORs (S6/79, S18, S46 and S50) previously assayed using other techniques (see, e.g., Malnic, B., et al. (1999) Cell 96, 713-723; herein incorporated by reference in its entirety) were tested against an assay panel of aliphatic alcohols, aldehydes and acids and some other odorants. Additionally, five “orphan” class I ORs (MOR23-1, MOR31-4, MOR31-6, MOR32-5 and MOR32-11) whose cognate ligands were unknown were tested. At a suprathreshold concentration of 100 uM, all these ORs were odorant selective, responding to only a small subset of the odorants tested (see FIG. 11A). This specificity was retained at lower, more physiologically relevant concentrations. Many of these ORs responded to odorants present in micromolar concentrations. The cell-surface expression of these ORs by living-cell immunofluorescence were evaluated. Some ORs (S18, MOR31-4, MOR31-6 and MOR32-5) were strongly expressed while other ORs (S6, S50, MOR23-1, MOR32-11) were weakly expressed (see FIG. 12). The present invention is not limited to a particular mechanism. Indeed, an understanding of the mechanism is not necessary to practice the present invention. […] Finally, two additional orphan class II ORs, MOR203-1 and olfr62, were tested against a panel of 139 odorants. […] Olfr62 responded to coumarine and piperonal (see FIG. 11C). […] When parental 293T cells for these ORs were used in this luciferase assay, little or no response to the odorants was observed. The present invention is not limited to a particular mechanism. Indeed, an understanding of the mechanism is not necessary to practice the present invention.
Dual-Glo system (Promega) for luciferase assay was used. CRE-Luciferase (Stratagene) was used to measure the receptor activities. Renilla luciferase driven by constitutively active SV40 promoter (pRL-SV40: Promega) was used as an internal control. Cells were plated on poly-D-lysine coated 96 well plates (BIOCOAT, Beckton Dickinson). After 8 hours (for experiments shown in FIGS. 8B and 8C) or 12 hours (for experiments shown in FIG. 8D and FIG. 11) after transfection, the medium was replaced with CD293 chemically defined medium (Invitrogen) and the plates were incubated for one hour at 37 degrees C. The medium was replaced with 50 ul of odorant solutions dissolved in CD293 and incubated for 10 hours (for experiments shown in FIGS. 8B and 8C) or 4 hours (for experiments shown in FIG. 8D and FIG. 11) at 37 degrees C. The manufacture's protocol for measuring luciferase and Renilla luciferase activities was followed. Luminescence was measured using Wallac Victor 1420 (Perkin-Elmer). Normalized luciferase activity was calculated as [Luc (N)-Luc (0)]/RL (N), where Luc (N)=Luminescent count of a certain well, Luc (0)=Luminescent count without odorant for each OR, and RL (N)=Luminescent count of Renilla Luciferase of each well. For cAMP assays, cells were plated onto 24-well plate. […]. Prism software (Graphpad) was used for data analysis. […]

olfr62 [2] = assay: Living-cell staining of cell-surface olfr62; format: cell-based, mouse; conditions: accessory protein co-transfected in 293T cells
Protocol: The proteins encoded by these clones were named REEP1, for Receptor Expression Enhancing Protein 1 and RTP1, for Receptor Transporting Protein 1. Subsequently, RTP2 was found, a close relative of RTP1. […] Next, REEP1, RTP1, and RTP2 were tested to detect a similar effect in promoting cell-surface expression of other ORs. Four different ORs (mouse OREG, mouse olfr62, mouse OR-S46 and rat I7) were expressed in 293T cells with or without REEP1, RTP1, or RTP2. […] Additionally, ORs transfected with REEP and/or RTP generated more immunofluorescent cells and stronger signals in positive cells compared with ORs without REEP and/or RTP (see FIG. 2A). The signal intensity and the number of immunopositive cells varied when using different ORs at each condition. […] Nonetheless, occasional immunopositive cells were observed only when the accessory proteins were co-expressed. The effects of RTP1 or RTP2 were consistently more robust than that of REEP1. The enhancement of cell-surface expression was specific for ORs and not for other GPCRs: neither REEP and/or RTP enhanced expression of the β2 adrenergic receptor, mT2R5 (a mouse bitter taste receptor) (see, e.g., Chandrashekar, J., et al. (2000) Cell 100, 703-711; herein incorporated by reference in its entirety), or a V2R pheromone receptor (VR4) (see, e.g., Matsunami, H., and Buck, L. B. (1997) Cell 90, 775-784; herein incorporated by reference in its entirety) (see FIG. 2A and FIG. 3). Finally, enhancement of cell-surface expression of MOR203-1 was not observed when other members of the REEP and RTP families (REEP2 and RTP4) were co-expressed.
(§1) 293T cells were maintained in minimal essential medium containing 10% fetal bovine serum (M10). Lipofectamine 2000 (Invitrogen) was used for transfection. In live-cell staining, 16 hours after transfection, cells were incubated in M10 containing anti rhodopsin antibody, 4D2 (see, e.g., Laird, D. W., and Molday, R. S. (1988) Invest Opthalmol V is Sci 29, 419-428; herein incorporated by reference in its entirety) and 15 mM NaN3 at 4 degrees C. for 1 hour. After washing, cells were incubated with Cy3-conjugated anti mouse IgG (Jackson Immunologicals), washed and mounted. For FACS analysis, 4D2 and PE-conjugated anti mouse IgG (Jackson Immunologicals) were used to monitor the Rho tagged receptor expression. Anti HA rabbit antibodies (Sigma) and Alexa 488 conjugated anti rabbit IgG (Molecular Probes) was used to stain the HA-β2 adrenergic receptor. To establish the Hana3a cells, 1 ug/ml of puromycin was used for selection. 96 colonies were picked and assayed using luciferase assay using OREG.

[3] = target: T1, mouse odorant receptor OREG (Mus musculus, UniProt Q920P2); assay: CRE-luciferase reporter gene assay, OREG; format: cell-based; conditions: 293T cells; compared to OR alone or control pCI
T1 construct: expressed in transfected cells; host or cells: 293T cells (with or without co-transfected REEP1/RTP1/RTP2) and Hana3A cells (293T stably expressing mouse REEP1, RTP1, RTP2, Galpha-olf)
T1 sequence (Q920P2 1-313): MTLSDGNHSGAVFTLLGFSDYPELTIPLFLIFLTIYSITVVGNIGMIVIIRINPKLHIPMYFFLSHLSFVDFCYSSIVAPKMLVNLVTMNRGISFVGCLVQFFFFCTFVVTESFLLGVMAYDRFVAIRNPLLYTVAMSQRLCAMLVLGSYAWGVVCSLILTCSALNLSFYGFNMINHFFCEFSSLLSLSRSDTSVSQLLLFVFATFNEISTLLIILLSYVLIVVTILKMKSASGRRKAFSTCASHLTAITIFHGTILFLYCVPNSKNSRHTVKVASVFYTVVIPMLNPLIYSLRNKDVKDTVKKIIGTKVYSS
Source text: Poor odorant evoked signaling activity in heterologous cell culture systems expressing ORs has been attributed to the poor cell surface expression of ORs. The identification of REEP and/or RTP allowed a direct assessment of this issue. A luciferase reporter gene assay was employed in which a cAMP responsive element (CRE) mediated luciferase gene expression (see FIG. 8A). Because OR activation leads to an increase in cAMP, activation of the mouse odorant receptor OREG by its ligand eugenol was measured in the presence and absence of REEP and/or RTP (see, e.g., Kajiya, K., et al. (2001) J Neurosci 21, 6018-6025; Touhara, K., et al., (1999) Proc Natl Acad Sci USA 96, 4040-4045; each herein incorporated by reference in their entireties). As reported previously, eugenol increased levels of OREG dependent luciferase activity (see, e.g., Katada, S., et al. (2003) Biochem Biophys Res Commun 305, 964-969; herein incorporated by reference in its entirety).
To facilitate analysis of odorant-OR interactions, 293T cell lines were established which stably express REEP1, RTP1, RTP2 and Gαolf, the G protein alpha subunit that couples to OR (see, e.g., Belluscio, L., et al. (1998) Neuron 20, 69-81; Jones, D. T., and Reed, R. R. (1989). Science 244, 790-795; each herein incorporated by reference in their entireties). To establish such cells, linearized expression vectors containing mouse REEP1, RTP1, RTP2 and Gαolf ORFs were transfected into 293T cells with PGK-Pac (puromycin resistant gene) (see, e.g., Watanabe, S., et al. (1995) Biochem Biophys Res Commun 213, 130-137; herein incorporated by reference in its entirety). […] Enhanced cell-surface expression was observed when OREG or other ORs were transfected in Hana3A cells and immunostained (see FIG. 10). […] Expression of Gαolf alone in 293T cells had little or no effect on OR activation using this assay.
Dual-Glo system (Promega) for luciferase assay was used. CRE-Luciferase (Stratagene) was used to measure the receptor activities. Renilla luciferase driven by constitutively active SV40 promoter (pRL-SV40: Promega) was used as an internal control. Cells were plated on poly-D-lysine coated 96 well plates (BIOCOAT, Beckton Dickinson). After 8 hours (for experiments shown in FIGS. 8B and 8C) or 12 hours (for experiments shown in FIG. 8D and FIG. 11) after transfection, the medium was replaced with CD293 chemically defined medium (Invitrogen) and the plates were incubated for one hour at 37 degrees C. The medium was replaced with 50 ul of odorant solutions dissolved in CD293 and incubated for 10 hours (for experiments shown in FIGS. 8B and 8C) or 4 hours (for experiments shown in FIG. 8D and FIG. 11) at 37 degrees C. The manufacture's protocol for measuring luciferase and Renilla luciferase activities was followed. Luminescence was measured using Wallac Victor 1420 (Perkin-Elmer). Normalized luciferase activity was calculated as [Luc (N)-Luc (0)]/RL (N), where Luc (N)=Luminescent count of a certain well, Luc (0)=Luminescent count without odorant for each OR, and RL (N)=Luminescent count of Renilla Luciferase of each well. For cAMP assays, cells were plated onto 24-well plate. […]. Prism software (Graphpad) was used for data analysis.

MOR203-1 = assay: Living-cell staining of cell-surface MOR203-1; format: cell-based, mouse; conditions: accessory protein co-transfected in 293T cells
Source text: After hypothesizing that mammalian ORs require accessory protein(s) for functional cell surface expression, a search was instituted for detecting such molecule(s). Long-SAGE (serial analysis of gene expression) libraries (see, e.g., Saha, S., et al., (2002) Nat Biotechnol 20, 508-512; herein incorporated by reference in its entirety) were constructed from single olfactory neurons as well as neurons from the vomeronasal organ and genes were collected that are expressed by these neurons. To identify candidate genes expressed by the olfactory neurons Digital Differential Display (see, e.g., http://www, followed by, .ncbi.nlm.nih.gov/UniGene/info_ddd.shtml) was also used. Candidate genes were investigated for ORFs that encode membrane associated proteins. Genes were selected with similarities to known chaperones and cloned the cDNAs from olfactory epithelium cDNAs. The mRNA expression of each gene was verified by in situ hybridization. After isolating and subcloning into mammalian expression vectors, each cDNA together with a mouse OR (MOR203-1) tagged with a 20 N-terminal amino acids of rhodopsin (Rho-tag), was transfected into 293T cells. We measured whether these clones had any effect on the cell-surface expression of ORs by staining living cells using antibodies against the Rho-tag (see, e.g., Laird, D. W., and Molday, R. S. (1988) Invest Opthalmol Vis Sci 29, 419-428; herein incorporated by reference in its entirety). When MOR203-1 was transfected alone, antibody staining detected only faint cell-surface expression in less than 1% of the cells. A schematic diagram outlining the screening procedure utilized with the present invention is provided at FIG. 1.
as §1

O=C1Cc2ccccc2O1 [2-coumaranone, 2-Coumaranone]
response of olfr62 to odorant (luciferase) (olfr62 [1]): preferred ligand

O=c1ccc2ccccc2o1 [coumarin, Coumarin]
response of olfr62 to odorant (luciferase) (olfr62 [1]): responded

O=Cc1ccc2c(c1)OCO2 [piperonal, Piperonal]
response of olfr62 to odorant (luciferase) (olfr62 [1]): responded

B1: RTP1-D1: RTP1 variant from deleting portions of RTP1-D; murine SEQ ID NO: 48 (protein, listed as Mus musculus)
chain: MRIFRPWRLRCPALHLPSFPTFSIKCSLPPLPTDEDMCKSVTTGEWKKVFYEKMEEVKPADSWDFIIDPNLKHNVLAPGWKQYLELHASGRFHCSWCWHTWQSPHVVILFHMYLDKAQRAGSVRMRVFKQLCYECGTARLDESSMLEENIESLVDNLITSLREQCYGERGGHYRIHVASRQDNRRHRGEFCEACQEGIVHWKPSEKLLEEEA
cell-surface expression of olfr62 (olfr62 [2]): Increased cell-surface staining

B2: RTP2: a close relative of RTP1; murine SEQ ID NO: 34, human SEQ ID NO: 38 (protein, listed as Mus musculus)
chain: MSTSLTTCEWKKVFYEKMEVAKPADSWELIIDPTLKPNELGPGWKQYLEQHASGRFHCSWCWHTWQSANVVILFHMHLDRAQRVGSVRMRVFKQLCYQCGTSRLDESSMLEENIEGLVDNLITSLREQCYDEDGGQYRIHVASRPDSGLHRSEFCEACQEGIVHWKPSEKLLEEDAAYTDASKKKGQAGFISSFFSFRWCLFWGTLCLVIVYLQFFRGRSGFL
OREG activity by luciferase, accessory protein co-expressed [3]: enhanced luciferase activities compared to OR alone | cell surface expression of MOR203-1 (MOR203-1): also enhanced cell surface expression

B3: RTP4: other member of the RTP family; murine SEQ ID NO: 36 (protein, listed as Mus musculus)
chain: MLFPDDFSTWEQTFQELMQEEKPGAKWSLHLDKNIVPDGAALGWRQHQQTVGRFQCSRCCRSWTSAQVMILCHMYPDTLKSQGQARMRIFGQKCQKCFGCQFETPKFSTEIIKRILNNLVNYILQRYYGHRKIALTSNASLGEKVTLDGPHDTRNCEACSLNSHGRCALAHKVKPPRSPSPLPNSSSPSKSCPPPPQTRNTDFGNKTLQDFGNRTFQGCREPPQREIEPPLFLFLSIAAFALFSLFTR
OREG activity by luciferase, accessory protein co-expressed [3]: did not produce a significant increase | cell surface expression of MOR203-1 (MOR203-1): not observed
